Data: patent US6342219

Target: VEGF:Flk-1 complex (VEGF associated with sFlk-1) (human; mouse) (UniProt P15692)
Assay: capture ELISA; biotinylated sFlk-1 complexed with VEGF titrated onto antibody-coated wells; concentration giving 50% maximal binding; * extrapolated value

VEGF:Flk-1 complex (VEGF associated with sFlk-1) (human; mouse), sequence (P15692 other isoform, or with tags, fused parts or gaps limits assumed, chain 1 of 2): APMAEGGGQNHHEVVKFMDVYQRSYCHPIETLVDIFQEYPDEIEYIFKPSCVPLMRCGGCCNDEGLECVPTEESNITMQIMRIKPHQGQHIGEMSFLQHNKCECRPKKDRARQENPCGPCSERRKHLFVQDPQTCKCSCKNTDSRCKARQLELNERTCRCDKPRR
VEGF:Flk-1 complex (VEGF associated with sFlk-1) (human; mouse), sequence (P35918 20-762 limits assumed, chain 2 of 2, further chain): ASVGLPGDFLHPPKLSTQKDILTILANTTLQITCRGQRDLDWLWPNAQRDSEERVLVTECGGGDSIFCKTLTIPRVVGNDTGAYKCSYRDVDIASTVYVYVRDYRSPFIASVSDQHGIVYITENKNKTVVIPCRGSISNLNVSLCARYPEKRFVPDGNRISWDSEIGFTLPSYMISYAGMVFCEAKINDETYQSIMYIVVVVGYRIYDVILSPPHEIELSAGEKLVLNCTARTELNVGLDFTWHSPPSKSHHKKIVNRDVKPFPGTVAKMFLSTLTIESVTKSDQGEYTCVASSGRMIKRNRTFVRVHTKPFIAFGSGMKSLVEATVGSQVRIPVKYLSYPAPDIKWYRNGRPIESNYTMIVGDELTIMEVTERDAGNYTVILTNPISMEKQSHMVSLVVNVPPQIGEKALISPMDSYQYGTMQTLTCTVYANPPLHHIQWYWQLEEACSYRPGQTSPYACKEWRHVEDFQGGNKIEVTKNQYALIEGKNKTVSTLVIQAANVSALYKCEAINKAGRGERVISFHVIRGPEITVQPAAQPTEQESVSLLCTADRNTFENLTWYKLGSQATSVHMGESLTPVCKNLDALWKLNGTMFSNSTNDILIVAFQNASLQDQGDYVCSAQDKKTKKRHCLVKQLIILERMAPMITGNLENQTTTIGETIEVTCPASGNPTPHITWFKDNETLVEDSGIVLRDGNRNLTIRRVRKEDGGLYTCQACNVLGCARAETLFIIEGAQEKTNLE
A4.6.1 (mouse anti-human VEGF monoclonal antibody from Genentech), sequence (VH): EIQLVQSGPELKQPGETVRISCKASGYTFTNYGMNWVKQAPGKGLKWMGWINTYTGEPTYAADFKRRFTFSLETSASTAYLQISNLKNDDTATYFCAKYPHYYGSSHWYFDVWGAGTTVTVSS
A4.6.1 (mouse anti-human VEGF monoclonal antibody from Genentech), sequence (VL): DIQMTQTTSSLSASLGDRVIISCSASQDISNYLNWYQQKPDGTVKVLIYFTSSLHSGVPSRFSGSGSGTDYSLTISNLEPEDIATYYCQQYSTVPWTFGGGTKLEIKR

EC50: 500 nM
Substance: A4.6.1 (mouse anti-human VEGF monoclonal antibody from Genentech)
